The target of the data set is T1, MdMYB1-HIS (Malus domestica, UniProt M1UZJ0 1-243).
T1 sequence: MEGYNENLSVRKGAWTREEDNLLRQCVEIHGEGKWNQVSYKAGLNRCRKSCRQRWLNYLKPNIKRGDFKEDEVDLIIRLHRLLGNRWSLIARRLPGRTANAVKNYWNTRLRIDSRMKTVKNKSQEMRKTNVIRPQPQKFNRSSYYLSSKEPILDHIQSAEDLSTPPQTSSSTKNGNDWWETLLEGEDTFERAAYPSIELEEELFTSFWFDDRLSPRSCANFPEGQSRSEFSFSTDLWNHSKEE
The data set is described as follows: EMSA; Proteins and biotin probes mixed in binding buffer for 25 min, acrylamide gel; buffer, salt, pH and temperature not stated. The settings on record: protein: recombinant; tags: His (pET32a); label: biotin; blunt. On the technique in general: Mobility shift assays separate free from complexed probe on a gel.

B1: MdDFR-Probe (dsDNA)
DNA 1: CGTGCGTCAACCGTTAGGAAAGCACG
DNA 2: CGTGCTTTCCTAACGGTTGACGCACG
For B1, the binding result is on record as “binds”.

B2: MdUF3GT-Probe (dsDNA)
DNA 1: ACCTTCCCGTCAGTTATTGCAGGTGG
DNA 2: CCACCTGCAATAACTGACGGGAAGGT
In the case of B2, the binding result is given as “binds”.

The values are drawn from PMC7475178, “Dynamic regulation of anthocyanin biosynthesis at different light intensities by the BT2-TCP46-MYB1 module in apple”.
